Measured values published in the supplement of paper PMC7877785.
± gives the uncertainty stated by the source.

Test: self-splicing fitness, log relative to wild type (ln ratio); higher = more splicing; Tetrahymena group I intron in knt gene, E. coli kanamycin selection, DiMSum; sequences stand for … in CUCUCU…GGAGGGAAAAGUUAUCAGGCAUGCACCUGGUAGCUAGUCUUUAAACCAAUAGAUUGCAUCGGUUUAAAAGGCAAGACCGUCAAAUUGCGGGAAAGGGGUCAACAGCCGUUCAGUACCAAGUCUCAGGGGAAACUUUGAGAUGGCCUUGCAAAGGGUAUGGUAAUAAGCUGACGGACAUGGUCCUAACCACGCAGCCAAGUCCUAAGUCAACAGAUCUUCUGUUGAUAUGGAUGCAGUUCACAGACUAAAUGUCGGUCGGGGAAGAUGUAUUCUUCUCAUAAGAUAUAGUCGGACCUCUCCUUAAUGGGAGCUAGCGGAUGAAGUGAUGCAACACUGGAGCCGCUGGGAACUAAUUUGUAUGCGAAAGUAUAUUGAUUAGUUUUGGAGUACUCGUGGUCG
Method in brief: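 Library with all eight P1ex-region intron nucleotides randomised, intron inside the knt kanamycin-resistance gene on pET-22b(+), in E. coli BL21(DE3). Cells grew overnight at 37°C or 30°C on LB agar with or without 25 μg/mL kanamycin (plus 100 μg/mL carbenicillin, 50 μM IPTG, 0.2% rhamnose), in six replicate transformations. Pooled colonies were amplicon-sequenced on Illumina HiSeq 2500. DiMSum fitness is the error-weighted combination of wild-type-normalised replicate fold changes, kanamycin versus none.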

Row | Sequence | self-splicing fitness (ln) (30 °C) | self-splicing fitness (ln) (37 °C)
1 | CCAAAGCAAUAUUACGUGGU | -3.39 ± 0.098 | -3.29 ± 0.14
2 | CCAAAGCAAUAUUACGUUAU | -3.2 ± 0.13 | -2.68 ± 0.15
3 | CCACAGCAAUAUUACGAAAA | -3.8 ± 0.27 | -2.58 ± 0.22
4 | CCACAGCAAUAUUACGAGAC | -3.7 ± 0.2 | -3.01 ± 0.23
5 | CCACAGCAAUAUUACGAGUG | -1.31 ± 0.057 | 0.0708 ± 0.062
6 | CCACAGCAAUAUUACGAUAA | -3.11 ± 0.25 | -2.75 ± 0.32
7 | CCACAGCAAUAUUACGCAAG | -1.34 ± 0.064 | -0.406 ± 0.072
8 | CCACAGCAAUAUUACGCGAG | -1.27 ± 0.076 | -0.902 ± 0.083
9 | CCACAGCAAUAUUACGCGCU | -4.48 ± 0.23 | -2.26 ± 0.15
10 | CCACAGCAAUAUUACGCUAU | -3.61 ± 0.26 | -3.12 ± 0.25
11 | CCACAGCAAUAUUACGGAAC | -3.75 ± 0.24 | -2.47 ± 0.23
12 | CCACAGCAAUAUUACGGAUA | -2.27 ± 0.12 | -2.68 ± 0.18
13 | CCACAGCAAUAUUACGGGAA | -3.4 ± 0.15 | -3.01 ± 0.2
14 | CCACAGCAAUAUUACGGGAC | -3.78 ± 0.33 | -2.26 ± 0.2
15 | CCACAGCAAUAUUACGGGGC | -3.95 ± 0.14 | -2.43 ± 0.16
16 | CCACAGCAAUAUUACGUAAG | -0.731 ± 0.038 | 0.388 ± 0.061
17 | CCACAGCAAUAUUACGUAUC | -2.59 ± 0.16 | -2 ± 0.22
18 | CCACAGCAAUAUUACGUCGG | -3.14 ± 0.12 | -1.95 ± 0.18
19 | CCACAGCAAUAUUACGUGGA | -3.7 ± 0.16 | -3.16 ± 0.16
20 | CCACAGCAAUAUUACGUGUG | -3.61 ± 0.095 | -2.36 ± 0.092
21 | CCACAGCAAUAUUACGUUAU | -4.08 ± 0.15 | -2.66 ± 0.16
22 | CCAGAGCAAUAUUACGAAAG | -2.45 ± 0.2 | -1.47 ± 0.17
23 | CCAGAGCAAUAUUACGAACU | -3.13 ± 0.35 | -1.86 ± 0.35
24 | CCAGAGCAAUAUUACGACGC | -4.17 ± 0.34 | -2.11 ± 0.28
25 | CCAGAGCAAUAUUACGAGCA | -5.29 ± 0.41 | -2.32 ± 0.19

Row | Sequence | self-splicing fitness (ln) (30 °C) | self-splicing fitness (ln) (37 °C)
26 | CCAGAGCAAUAUUACGCCGU | -4.04 ± 0.48 | 
27 | CCAGAGCAAUAUUACGCGAU |  | -2.21 ± 0.33
28 | CCAGAGCAAUAUUACGGCAA | -2.25 ± 0.38 | -2.28 ± 0.3
29 | CCAGAGCAAUAUUACGGUAA | -2.75 ± 0.22 | -2.33 ± 0.26
30 | CCAGAGCAAUAUUACGGUGA | -3.55 ± 0.2 | -2.6 ± 0.23
31 | CCAGAGCAAUAUUACGUCAG | -2.58 ± 0.12 | -1.6 ± 0.15
32 | CCAUAGCAAUAUUACGAAAA | -3.02 ± 0.29 | 
33 | CCAUAGCAAUAUUACGAAUG | -2.11 ± 0.08 | -1.15 ± 0.095
34 | CCAUAGCAAUAUUACGACAA | -3.06 ± 0.41 | -2.94 ± 0.35
35 | CCAUAGCAAUAUUACGAGCC | -4.57 ± 0.45 | -2.16 ± 0.36
36 | CCAUAGCAAUAUUACGAUCC | -3.2 ± 0.35 | -1.43 ± 0.41
37 | CCAUAGCAAUAUUACGAUUC | -3.64 ± 0.25 | -2.89 ± 0.41
38 | CCAUAGCAAUAUUACGCAUC | -3.39 ± 0.27 | -2.31 ± 0.3
39 | CCAUAGCAAUAUUACGCCAA | -2.76 ± 0.43 | -1.58 ± 0.25
40 | CCAUAGCAAUAUUACGCGAU | -2.56 ± 0.27 | -2.91 ± 0.43
41 | CCAUAGCAAUAUUACGCGGC | -4.01 ± 0.35 | -2.87 ± 0.43
42 | CCAUAGCAAUAUUACGCGUC | -3.04 ± 0.33 | -4.21 ± 0.46
43 | CCAUAGCAAUAUUACGCUAA | -3.38 ± 0.22 | -2.75 ± 0.32
44 | CCAUAGCAAUAUUACGCUAG | -3.8 ± 0.47 | -1.82 ± 0.23
45 | CCAUAGCAAUAUUACGCUCC | -2.97 ± 0.49 | 
46 | CCAUAGCAAUAUUACGGCAA | -3.37 ± 0.28 | -2.9 ± 0.3
47 | CCAUAGCAAUAUUACGGCGA | -2.03 ± 0.26 | -1.92 ± 0.23
48 | CCAUAGCAAUAUUACGGCUU | -3.97 ± 0.31 | -2.19 ± 0.2
49 | CCAUAGCAAUAUUACGGGAU | -3.65 ± 0.23 | -2.86 ± 0.24
